From US20210324099A1 (Chugai, published 2021)
Where a chain is given by its changes, count along the chain named.

B1: A375-SCF042a/B167-Lamlib (antibody, human IgG1, lambda)
heavy: EVQLVESGGGLVKPGGSLRLSCAASGFTFSTFTMNWVRQAPGKGLEWVSSISSKSTYIEYADSFKVRFTISRDNAKNSLYLQMNSLRAEDTAVYYCARYGAKNFLNWVFDYWGQGTLVTVSSASTKGPSVFPLAPSSKSTSGGTAALGCLVKDYFPEPVTVSWNSGALTSGVHTFPAVLQSSGLYSLSSVVTVPSSSLGTQTYICNVNHKPSNTKVDKRVEPKSCDKTHTCPPCPAPELLNGPSVFLFPPKPKDTLMISRTPEVTCVVVDVSDEDPEVKFNWYVDGVEVHNAKTKPREEQYNSTYRVVSVLTVLHQDWLNGKEYKCKVSNKALPKPIEKTISKAKGQPREPQVYTLPPSREEMTKNQVSLTCLVKGFYPSDIAVEWESNGQPENNYKTTPPVLDSDGSFFLYSKLTVKKSRWQQGNVFSCSVMHEALHNHYTQKSLSLSP
light: QSALTQPPSASGSPGQTVTISCTGTRYDVGYYEYVSWYQQHPGKAPKLMIYETSKRLSGVPDRFSGSKSGNTASLTVSGLQAEDEADYYCSSYRYEHQVSFGGGTKLTVLGQPKAAPSVTLFPPSSEELQANKATLVCLISDFYPGAVTVAWKADSSPVKAGVETTTPSKQSNNKYAASSYLSLTPEQWKSHRSYSCQVTHEGSTVEKTVAPTECS
notes: copies: 2 + 2
B2: A375-SCF057a/B167-Lamlib (antibody, human IgG1, lambda)
heavy: B1 heavy with Q316R, P348R, K418D
light: B1 light
B3: A375-SCF043a/B167-Lamlib (antibody, human IgG1, lambda)
heavy: B1 heavy with P348R
light: B1 light
B4: A375-SCF060a/B167-Lamlib (antibody, human IgG1, lambda)
heavy: B1 heavy with L240W, Q300L, Q316R, K331T, K418D
light: B1 light
notes: copies: 2 + 2
B5: A375-SCF059a/B167-Lamlib (antibody, human IgG1, lambda)
heavy: B1 heavy with Q316R
light: B1 light
notes: copies: 2 + 2
B6: A375-SCF059aPh/B167-Lamlib (antibody, human IgG1, lambda)
heavy: B1 heavy with L240W, Q316R
light: B1 light
notes: copies: 2 + 2
B7: A375-SCF056a/B167-Lamlib (antibody, human IgG1, lambda)
heavy: B1 heavy with Q316R, K418D
light: B1 light
notes: copies: 2 + 2
B8: A375-SCF043aPh/B167-Lamlib (antibody, human IgG1, lambda)
heavy: B1 heavy with L240W, P348R
light: B1 light
B9: A375-SCF056aPh/B167-Lamlib (antibody, human IgG1, lambda)
heavy: B1 heavy with L240W, Q316R, K418D
light: B1 light
notes: copies: 2 + 2
B10: A375-SCF057aPh/B167-Lamlib (antibody, human IgG1, lambda)
heavy: B1 heavy with L240W, Q316R, P348R, K418D
light: B1 light
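Throughout, for binding per 1RU of antibody: biacore SPR with antibody captured on an anti-human Fab lambda chip, human FcγR injected at 1000 nM (FcγRIa at 8 nM) in pH 7.4 phosphate buffer.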

What follows are binders tested against T1, hFcgRIa (human, UniProt P12314 16-292) (assay: SPR 25C).
T1 construct: extracellular domain; also called human FcγRIa; FcγRI
T1 sequence (P12314 16-292): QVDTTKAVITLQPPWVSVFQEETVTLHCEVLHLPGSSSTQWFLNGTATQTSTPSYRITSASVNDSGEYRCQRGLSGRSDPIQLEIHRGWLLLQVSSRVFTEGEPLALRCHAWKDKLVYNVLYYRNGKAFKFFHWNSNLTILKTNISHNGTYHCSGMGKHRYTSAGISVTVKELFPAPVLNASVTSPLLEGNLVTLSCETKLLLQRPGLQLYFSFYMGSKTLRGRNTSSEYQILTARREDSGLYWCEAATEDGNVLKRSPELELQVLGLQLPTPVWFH
Protocol: (§1) Biacore T200 (GE Healthcare) was used to evaluate the binding activity to the respective human Fcγ receptor (hereafter referred to as FcγR). Measurement was performed at 25° C. using 50 mM phosphate, 150 mM NaCl, 0.05 w/v %-P20, pH 7.4 as buffer. About 1000 RU of antibody was captured using a sensor chip immobilized with CaptureSelect™ Human Fab-lambda Kinetics Biotin Conjugate (Thermo Fisher Scientific) as a molecule for ligand capturing. Human FcγR was diluted to 8 nM for FcγRIa and 1000 nM for other FcγR in the measurement buffer, and it was interacted to the captured antibody. The binding activity of each antibody to FcγR was assessed by calculating the binding amount of FcγR (RU) per unit amount of antibody using Biacore T200 Evaluation Software 2.0.
In the case of B1, the “binding per 1RU of antibody” value is reported as 0.0396 RU.
B2 was tested, and the “binding per 1RU of antibody” value was 0.0405 RU.
For B3, the “binding per 1RU of antibody” value was 0.0429 RU.
B4 was tested, and the “binding per 1RU of antibody” value was 0.0021 RU.
B5 was tested, and the “binding per 1RU of antibody” value was 0.038 RU.
With B6 the “binding per 1RU of antibody” value was 0.0089 RU.
For B7, the “binding per 1RU of antibody” value was 0.0395 RU.
B8 was tested, and the “binding per 1RU of antibody” value was 0.0011 RU.
In the case of B9, the “binding per 1RU of antibody” value is reported as 0.0019 RU.
B10 was tested, and the “binding per 1RU of antibody” value was 0.0021 RU.

Each binder was assayed against T2, hFcgRIIaH (human, UniProt P12318 34-217) (assay: SPR 25C).
T2 construct: extracellular domain; also called human FcγRIIa type H (H131)
T2 sequence (looked up): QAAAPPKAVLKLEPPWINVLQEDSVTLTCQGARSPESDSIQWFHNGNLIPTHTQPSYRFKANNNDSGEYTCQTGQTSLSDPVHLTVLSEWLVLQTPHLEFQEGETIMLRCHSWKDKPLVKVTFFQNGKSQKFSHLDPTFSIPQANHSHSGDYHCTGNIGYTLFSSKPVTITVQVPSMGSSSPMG
Protocol: as §1
For B1, the “binding per 1RU of antibody” value was 0.0522 RU.
With B2 the “binding per 1RU of antibody” value was 0.0525 RU.
With B3 the “binding per 1RU of antibody” value was 0.0552 RU.
For B4, the “binding per 1RU of antibody” value was 0.0463 RU.
For B5, the “binding per 1RU of antibody” value was 0.0502 RU.
With B6 the “binding per 1RU of antibody” value was 0.0332 RU.
For B7, the “binding per 1RU of antibody” value was 0.0529 RU.
In the case of B8, the “binding per 1RU of antibody” value is reported as 0.0349 RU.
For B9, the “binding per 1RU of antibody” value was 0.0314 RU.
In the case of B10, the “binding per 1RU of antibody” value is reported as 0.0365 RU.

These binders were tested against T3, hFcgRIIaR (human, UniProt P12318 34-217) (assay: SPR 25C).
T3 construct: extracellular domain; also called human FcγRIIa type R (R131)
T3 sequence (looked up): T2 sequence (looked up) with H134R
Protocol: as §1
For B1, the “binding per 1RU of antibody” value was 0.0327 RU.
With B2 the “binding per 1RU of antibody” value was 0.0367 RU.
In the case of B3, the “binding per 1RU of antibody” value is reported as 0.0361 RU.
In the case of B4, the “binding per 1RU of antibody” value is reported as 0.0459 RU.
For B5, the “binding per 1RU of antibody” value was 0.0319 RU.
For B6, the “binding per 1RU of antibody” value was 0.0319 RU.
In the case of B7, the “binding per 1RU of antibody” value is reported as 0.0331 RU.
B8 was tested, and the “binding per 1RU of antibody” value was 0.0349 RU.
B9 was tested, and the “binding per 1RU of antibody” value was 0.0299 RU.
For B10, the “binding per 1RU of antibody” value was 0.0364 RU.

These binders were tested against T4, hFcgRIIb (human, UniProt P31994 43-217) (assay: SPR 25C).
T4 construct: extracellular domain; also called human FcγRIIb
T4 sequence (looked up): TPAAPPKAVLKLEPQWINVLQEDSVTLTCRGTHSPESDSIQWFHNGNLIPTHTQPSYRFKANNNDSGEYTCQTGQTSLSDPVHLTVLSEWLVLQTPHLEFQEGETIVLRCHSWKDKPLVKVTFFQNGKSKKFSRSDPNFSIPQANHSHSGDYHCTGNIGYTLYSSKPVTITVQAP
Protocol: as §1
For B1, the “binding per 1RU of antibody” value was 0.0393 RU.
For B2, the “binding per 1RU of antibody” value was 0.0412 RU.
B3 was tested, and the “binding per 1RU of antibody” value was 0.0419 RU.
For B4, the “binding per 1RU of antibody” value was 0.0472 RU.
With B5 the “binding per 1RU of antibody” value was 0.0358 RU.
B6 was tested, and the “binding per 1RU of antibody” value was 0.0291 RU.
For B7, the “binding per 1RU of antibody” value was 0.0399 RU.
With B8 the “binding per 1RU of antibody” value was 0.0339 RU.
B9 was tested, and the “binding per 1RU of antibody” value was 0.0292 RU.
For B10, the “binding per 1RU of antibody” value was 0.0345 RU.

The binders below were run against T5, hFcgRIIIaF (human, UniProt P08637 17-208) (assay: SPR 25C).
T5 construct: extracellular domain; also called human FcγRIIIa allotype F158
T5 sequence (P08637 17-208): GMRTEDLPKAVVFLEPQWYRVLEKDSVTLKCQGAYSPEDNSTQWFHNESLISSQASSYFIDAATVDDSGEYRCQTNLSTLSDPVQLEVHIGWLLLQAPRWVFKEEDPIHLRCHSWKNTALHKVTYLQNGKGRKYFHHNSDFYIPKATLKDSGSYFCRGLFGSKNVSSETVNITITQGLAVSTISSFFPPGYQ
Protocol: as §1
B1 was tested, and the “binding per 1RU of antibody” value was 0.0003 RU.
In the case of B2, the “binding per 1RU of antibody” value is reported as 0.0013 RU.
For B3, the “binding per 1RU of antibody” value was 0.0011 RU.
In the case of B4, the “binding per 1RU of antibody” value is reported as 0.0011 RU.
B5 was tested, and the “binding per 1RU of antibody” value was 0.001 RU.
B6 was tested, and the “binding per 1RU of antibody” value was 0.0003 RU.
With B7 the “binding per 1RU of antibody” value was 0.0011 RU.
In the case of B8, the “binding per 1RU of antibody” value is reported as 0.0001 RU.
With B9 the “binding per 1RU of antibody” value was 0.001 RU.
In the case of B10, the “binding per 1RU of antibody” value is reported as -0.0003 RU.

What follows are binders tested against T6, hFcgRIIIaV (human, UniProt P08637 17-208) (assay: SPR 25C).
T6 construct: extracellular domain; also called human FcγRIIIa allotype V158
T6 sequence (P08637 17-208 F176V): as the sequence (P08637 17-208) above, with F160V counted along it
Protocol: as §1
In the case of B1, the “binding per 1RU of antibody” value is reported as 0.0014 RU.
For B2, the “binding per 1RU of antibody” value was 0.0025 RU.
B3 was tested, and the “binding per 1RU of antibody” value was 0.0025 RU.
With B4 the “binding per 1RU of antibody” value was 0.0008 RU.
For B5, the “binding per 1RU of antibody” value was 0.0021 RU.
With B6 the “binding per 1RU of antibody” value was 0.0028 RU.
For B7, the “binding per 1RU of antibody” value was 0.0023 RU.
With B8 the “binding per 1RU of antibody” value was 0.0001 RU.
With B9 the “binding per 1RU of antibody” value was 0.001 RU.
For B10, the “binding per 1RU of antibody” value was 0.0005 RU.

What follows are binders tested against human FcRn (human, UniProt P55899 24-290; P61769 21-119, limits assumed) (assay: SPR 25C pH 6.0, steady state;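 note: antibody captured on chip via anti-human Fab-lambda ligand, human FcRn injected as analyte in 50 mM phosphate buffer with 150 mM NaCl and P20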).
human FcRn, sequence (P55899 24-290 limits assumed, chain 1 of 2): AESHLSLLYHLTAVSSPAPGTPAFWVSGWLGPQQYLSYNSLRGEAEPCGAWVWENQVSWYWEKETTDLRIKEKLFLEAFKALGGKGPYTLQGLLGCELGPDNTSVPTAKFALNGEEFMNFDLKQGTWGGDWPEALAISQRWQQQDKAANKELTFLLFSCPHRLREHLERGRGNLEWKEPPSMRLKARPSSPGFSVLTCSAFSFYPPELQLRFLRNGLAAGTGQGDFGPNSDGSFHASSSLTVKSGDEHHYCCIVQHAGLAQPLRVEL
human FcRn, sequence (P61769 21-119 limits assumed, chain 2 of 2): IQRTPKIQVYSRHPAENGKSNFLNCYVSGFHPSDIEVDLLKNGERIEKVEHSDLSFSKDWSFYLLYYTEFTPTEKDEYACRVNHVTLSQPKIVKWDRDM
Protocol: Biacore T200 (GE Healthcare) was used to assess the binding activity to human FcRn. Measurement was performed at 25° C. using 50 mM phosphate, 150 mM NaCl, 0.05 w/v %-P20, pH 6.0 as buffer. […] About 400 RU of antibody was captured using a sensor chip immobilized with CaptureSelect™ Human Fab-lambda Kinetics Biotin Conjugate (Thermo Fisher Scientific) as a molecule for ligand capturing, followed by the binding of human FcRn diluted in measuring buffer. The activity of the respective antibodies to bind FcRn was assessed by calculating KD (mol/L) by the steady-state model using Biacore T200 Evaluation Software 2.0.
For B1, the Kd was 1490 nM.
In the case of B2, the Kd is reported as 928 nM.
In the case of B3, the Kd is reported as 1180 nM.
Binder B4 has a Kd of 1010 nM.
B5 showed a Kd of 1030 nM.
B6 was tested, and the Kd was 1050 nM.
In the case of B7, the Kd is reported as 956 nM.
B8 showed a Kd of 1210 nM.
Binder B9 has a Kd of 1000 nM.
Work on B10 yielded a Kd of 909 nM.

The binders below were run against T1, hFcgRIa (assay: SPR 25C; relative to A375-G1T3/B167-Lamlib;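 note: SPR with antibody captured on an anti-human Fab-lambda chip, human FcγR analyte at 8 nM for FcγRIa or 1000 nM for the others, pH 7.4, FcγR RU per captured antibody unit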).
Protocol: as §1
For B1, the relative binding amount was 0.49.
B2 showed a relative binding amount of 0.5.
B3 was tested, and the relative binding amount was 0.53.
B4 showed a relative binding amount of 0.03.
With B5 the relative binding amount was 0.47.
With B6 the relative binding amount was 0.11.
Binder B7 has a relative binding amount of 0.49.
With B8 the relative binding amount was 0.01.
In the case of B9, the relative binding amount is reported as 0.02.
For B10, the relative binding amount was 0.03.

These binders were tested against T2, hFcgRIIaH (assay: SPR 25C; relative to A375-G1T3/B167-Lamlib;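 note: SPR with antibody captured on an anti-human Fab-lambda chip, human FcγR analyte at 8 nM for FcγRIa or 1000 nM for the others, pH 7.4, FcγR RU per captured antibody unit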).
Protocol: as §1
In the case of B1, the relative binding amount is reported as 0.92.
For B2, the relative binding amount was 0.93.
In the case of B3, the relative binding amount is reported as 0.97.
B4 was tested, and the relative binding amount was 0.82.
For B5, the relative binding amount was 0.88.
Binder B6 has a relative binding amount of 0.59.
For B7, the relative binding amount was 0.93.
B8 was tested, and the relative binding amount was 0.62.
B9 showed a relative binding amount of 0.55.
B10 gave a relative binding amount of 0.64.

What follows are binders tested against T3, hFcgRIIaR (assay: SPR 25C; relative to A375-G1T3/B167-Lamlib;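 note: SPR with antibody captured on an anti-human Fab-lambda chip, human FcγR analyte at 8 nM for FcγRIa or 1000 nM for the others, pH 7.4, FcγR RU per captured antibody unit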).
Protocol: as §1
In the case of B1, the relative binding amount is reported as 0.71.
B2 was tested, and the relative binding amount was 0.79.
Binder B3 has a relative binding amount of 0.78.
B4 was tested, and the relative binding amount was 0.99.
B5 was tested, and the relative binding amount was 0.69.
Binder B6 has a relative binding amount of 0.69.
B7 gave a relative binding amount of 0.71.
For B8, the relative binding amount was 0.75.
In the case of B9, the relative binding amount is reported as 0.64.
Work on B10 yielded a relative binding amount of 0.79.

The binders below were run against T4, hFcgRIIb (assay: SPR 25C; relative to A375-G1T3/B167-Lamlib;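 note: SPR with antibody captured on an anti-human Fab-lambda chip, human FcγR analyte at 8 nM for FcγRIa or 1000 nM for the others, pH 7.4, FcγR RU per captured antibody unit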).
Protocol: as §1
For B1, the relative binding amount was 3.59.
For B2, the relative binding amount was 3.76.
For B3, the relative binding amount was 3.82.
With B4 the relative binding amount was 4.31.
B5 showed a relative binding amount of 3.27.
B6 gave a relative binding amount of 2.66.
B7 was tested, and the relative binding amount was 3.64.
B8 gave a relative binding amount of 3.1.
B9 showed a relative binding amount of 2.67.
B10 gave a relative binding amount of 3.15.

These binders were tested against T5, hFcgRIIIaF (assay: SPR 25C; relative to A375-G1T3/B167-Lamlib).
Protocol: as §1
For B1, the relative binding amount was 0.01.
With B2 the relative binding amount was 0.06.
With B3 the relative binding amount was 0.05.
In the case of B4, the relative binding amount is reported as 0.05.
B5 showed a relative binding amount of 0.05.
Binder B6 has a relative binding amount of 0.01.
In the case of B7, the relative binding amount is reported as 0.05.
With B8 the relative binding amount was 0.
With B9 the relative binding amount was 0.05.
B10 showed a relative binding amount of -0.02.

The binders below were run against T6, hFcgRIIIaV (assay: SPR 25C; relative to A375-G1T3/B167-Lamlib).
Protocol: as §1
For B1, the relative binding amount was 0.02.
Binder B2 has a relative binding amount of 0.04.
In the case of B3, the relative binding amount is reported as 0.04.
With B4 the relative binding amount was 0.01.
Work on B5 yielded a relative binding amount of 0.03.
B6 gave a relative binding amount of 0.04.
B7 showed a relative binding amount of 0.03.
B8 was tested, and the relative binding amount was 0.
For B9, the relative binding amount was 0.01.
For B10, the relative binding amount was 0.01.
